{"source": "paper PMC7413259", "settings_in_all_cases": "5' triphosphate, B1: 50 mM Tris-HCl pH 8.0, 150 mM NaCl, 1 mM MgCl2, 2 mM beta-mercaptoethanol, 10% glycerol, 20 C, B2: same with 100 mM NaCl", "key": {"[1]": {"system": "ZIKV NS5 RdRp domain (Zika virus)", "test": "fluorescence titration"}, "[2]": {"biological_target": "ZIKV NS5 WT (Zika virus) (UniProt A0A024B7W1)", "test": "fluorescence titration"}, "[3]": {"biological_target": "T1, ZIKV NS5 MTase domain WT (Zika virus) (UniProt A0A142I5B9)", "test": "fluorescence titration"}, "[4]": {"biological_target": "T1, ZIKV NS5 MTase domain WT (Zika virus)", "test": "fluorescence anisotropy"}, "[5]": {"biological_target": "T1, ZIKV NS5 MTase domain WT (Zika virus)", "test": "fluorescence titration", "remark": "listed apart in the source"}}}
{"substance": "ZIKV SLA (SLA-F)", "values": [{"measurement": "Kd", "setting": "[1]", "result": 530, "unit": "nM"}, {"measurement": "Kd", "setting": "[2]", "result": 280, "unit": "nM"}, {"measurement": "Kd", "setting": "[3]", "result": 590, "unit": "nM"}, {"measurement": "Kd", "setting": "[4]", "result": 310, "unit": "nM"}, {"measurement": "Kd", "setting": "[5]", "result": 400, "unit": "nM"}]}
